Values quoted from earlier work, collected in publication PMC12580572.

Legend:
[1] = target: GluK5 (Rattus norvegicus) (UniProt Q63273)
[2] = target: GluK2 (Rattus norvegicus) (UniProt P42260)

Sequence of UniProt Q63273 (Q63273 15-979): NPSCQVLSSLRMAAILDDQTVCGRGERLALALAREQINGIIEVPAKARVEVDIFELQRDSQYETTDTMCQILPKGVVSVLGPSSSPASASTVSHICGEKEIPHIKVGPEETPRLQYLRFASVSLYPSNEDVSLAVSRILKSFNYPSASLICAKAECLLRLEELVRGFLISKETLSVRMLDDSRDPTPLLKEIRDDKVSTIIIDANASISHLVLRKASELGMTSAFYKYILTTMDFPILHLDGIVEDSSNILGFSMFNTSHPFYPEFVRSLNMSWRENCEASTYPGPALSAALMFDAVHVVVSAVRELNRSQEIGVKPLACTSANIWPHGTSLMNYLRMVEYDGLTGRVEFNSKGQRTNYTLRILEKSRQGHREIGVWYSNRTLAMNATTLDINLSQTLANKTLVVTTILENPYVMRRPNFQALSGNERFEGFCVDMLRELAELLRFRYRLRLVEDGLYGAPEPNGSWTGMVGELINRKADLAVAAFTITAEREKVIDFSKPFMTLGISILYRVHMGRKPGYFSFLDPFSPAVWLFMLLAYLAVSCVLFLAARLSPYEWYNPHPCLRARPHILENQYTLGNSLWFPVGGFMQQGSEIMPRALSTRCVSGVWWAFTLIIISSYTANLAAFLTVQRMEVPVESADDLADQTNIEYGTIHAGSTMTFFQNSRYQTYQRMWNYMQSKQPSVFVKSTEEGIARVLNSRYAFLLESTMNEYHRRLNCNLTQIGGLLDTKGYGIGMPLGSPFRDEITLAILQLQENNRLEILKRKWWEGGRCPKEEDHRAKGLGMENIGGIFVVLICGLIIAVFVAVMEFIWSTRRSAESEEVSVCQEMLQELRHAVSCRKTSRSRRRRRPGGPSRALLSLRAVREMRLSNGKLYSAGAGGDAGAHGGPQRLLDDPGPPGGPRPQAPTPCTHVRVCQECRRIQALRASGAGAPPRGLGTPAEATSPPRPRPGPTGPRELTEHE

Kd [1]: 77 nM
Kd [2]: 350 nM
Substance: GluK2 (from UniProt P42260)
